Measured values: the Human Domainome abundance scans (Beltran et al. 2025)

B1: CD2-associated protein, residues 1 to 59; numbered along this chain, Q9Y5K6 (parent)
chain: MVDYIVEYDYDAVHDDELTIRVGEIIRNVKKLQEEGWLEGELNGRRGMFPDNFVKEIKR

Variants of: B1
Assay: abundance fitness (aPCA) (normalised: wild type 0, dead -1); higher = more abundant; growth selection in yeast, the domain comes from the species named
Details: Homo sapiens

Abundance fitness of substitutions, site by site:
L38: G -0.996 | R -0.563
E41: D -0.349 | Y -0.532 | N -0.361 | R -0.306 | S -0.013 | I -0.191
G36: S -0.352 | D -0.551 | C -0.403 | F -0.622 | T -0.618 | I -0.632 | P -0.143
R59: G 0.011 | H 0.107 | T -0.011 | E 0.138 | W -0.126 | K 0.012 | P 0.2 | A -0.303 | F -0.182
M1: A 0.05 | G -0.14 | H -0.209 | T -0.228 | C -0.28 | Q -0.301 | V -0.153
D16: C 0.229 | P -0.434 | F -0.297 | E -0.115 | L -0.13 | V -0.088
E34: V -0.006 | W -0.057 | K 0.075 | D -0.148 | Y -0.089 | Q -0.241
K31: R -0.069 | G -0.096 | W -0.328 | Q -0.07 | E -0.061 | T 0.03
I26: R -0.894 | N -0.988 | G -0.926 | V -0.177 | S -0.79
R46: W -0.434 | L -0.245 | M -0.066 | T -0.082 | F -0.346 | C -0.363 | S -0.402
I5: V -0.097 | M 0 | D -0.556 | S -0.317 | T -0.335
R45: N -0.16 | A -0.27 | I -0.191 | F -0.248 | L -0.224 | S -0.07 | K -0.075
Y8: F 0.078 | E -0.02 | G -0.026 | I 0.184 | M -0.261 | C 0.096 | L -0.047 | P -0.918 | V -0.154 | T 0.123 | W -0.139
